Measured values: US20040175796A1 (SOLVAY PHARMACEUTICALS B V, published 2004)
No end group written: not given here.

Experiments:
[1] = target: T1, IGS4B (IGS4BPROT), human G-protein coupled receptor IGS4, polymorphic form B (human, UniProt Q9GZQ4 4-415); assay: cell-based or functional assay
T1 chain: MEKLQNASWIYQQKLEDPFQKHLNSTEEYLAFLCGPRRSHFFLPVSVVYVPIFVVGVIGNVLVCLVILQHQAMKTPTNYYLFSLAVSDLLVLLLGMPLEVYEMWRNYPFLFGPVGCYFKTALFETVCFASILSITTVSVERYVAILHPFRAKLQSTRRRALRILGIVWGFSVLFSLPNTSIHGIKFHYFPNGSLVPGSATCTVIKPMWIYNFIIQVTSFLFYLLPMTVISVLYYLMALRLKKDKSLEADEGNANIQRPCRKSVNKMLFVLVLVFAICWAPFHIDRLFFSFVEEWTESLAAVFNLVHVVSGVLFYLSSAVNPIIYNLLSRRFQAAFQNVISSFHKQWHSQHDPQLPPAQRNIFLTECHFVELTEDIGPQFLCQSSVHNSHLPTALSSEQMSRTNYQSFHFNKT

[2] = target: IGS4A (IGS4APROT), human G-protein coupled receptor IGS4, polymorphic form A (human, UniProt Q9GZQ4 4-415); assay: cell-based or functional assay

B1: rat Neuromedin U-23 (peptide, UniProt P12760 144-166, looked up)
peptide: YKVNEYQGPVAPSGGFFLFRPRN-NH2
EC50, calcium mobilisation (FLIPR) [1]: 0.05 nM | LogEC50, calcium mobilisation (FLIPR) [1]: -10.6 log M | EC50, calcium mobilisation (FLIPR) [2]: 53 nM | log EC50, calcium mobilisation (FLIPR) [2]: -7.27 log M
